1 protein from paper PMC6002512, “The Defense-Related Isoleucic Acid Differentially Accumulates in Arabidopsis Among Branched-Chain Amino Acid-Related 2-Hydroxy Carboxylic Acids” (Frontiers in Plant Science, 2018) can be followed below.

Holding throughout (type): biochemical, Arabidopsis thaliana
Substrate in data set [1]: CC(C)CC(O)C(=O)O
In words: HPLC with radiodetection of glucosylated product, non-linear regression. To be noted: 2 mM 14C-UDP-glucose, 0.1 M Tris-HCl pH 7.5, 30°C. From the text:
(§1) HPLC with radiodetection of glucosylated product, non-linear regression on UGT76B1

Substrate in data set [2]: CC[C@H](C)[C@H](O)C(=O)O
The data set is described as above. To be noted: 2 mM 14C-UDP-glucose, 0.1 M Tris-HCl pH 7.5, 30°C.
Description: as §1

Substrate in the data set “purified protein”: O=C(O)c1ccccc1O
In words: purified protein. To be noted: 2 mM UDP-glucose, 0.1 M Tris-HCl pH 7.5, 30°C.

B1: UGT76B1 (Arabidopsis thaliana) (protein)
chain: METRETKPVIFLFPFPLQGHLNPMFQLANIFFNRGFSITVIHTEFNSPNSSNFPHFTFVSIPDSLSEPESYPDVIEILHDLNSKCVAPFGDCLKKLISEEPTAACVIVDALWYFTHDLTEKFNFPRIVLRTVNLSAFVAFSKFHVLREKGYLSLQETKADSPVPELPYLRMKDLPWFQTEDPRSGDKLQIGVMKSLKSSSGIIFNAIEDLETDQLDEARIEFPVPLFCIGPFHRYVSASSSSLLAHDMTCLSWLDKQATNSVIYASLGSIASIDESEFLEIAWGLRNSNQPFLWVVRPGLIHGKEWIEILPKGFIENLEGRGKIVKWAPQPEVLAHRATGGFLTHCGWNSTLEGICEAIPMICRPSFGDQRVNARYINDVWKIGLHLENKVERLVIENAVRTLMTSSEGEEIRKRIMPMKETVEQCLKLGGSSFRNLENLIAYILSF
notes: full coding region including the 5' ATG codon cloned into pDEST15; N-terminal GST fusion; recombinant
For the protein B1, the results for the Km (in data set [1]; in data set [2]; in the data set “purified protein”) were 461 ± 79 µM, 472 ± 97 µM and 151 ± 28 µM, respectively. Besides, the kcat was determined as 0.582 ± 0.035 s⁻¹ in data set [1], 0.914 ± 0.067 s⁻¹ in data set [2] and 0.331 ± 0.016 s⁻¹ in “purified protein”. Further, the kcat/Km was determined as 1260 M⁻¹ s⁻¹ in data set [1], 1940 M⁻¹ s⁻¹ in data set [2] and 2200 M⁻¹ s⁻¹ in “purified protein”.
